We go through 16 molecules from patent US20240043504A1 (published 2024).

Assay [1] has as its target SARS-CoV-2 Spike Protein (S1 Subunit, Fc Tag) (Sino 40591-V02H) (SARS-CoV-2, UniProt P0DTC2 16-685). In words: Luminex, supernatant.
Assay [2] deals with SARS-CoV-2 Spike Protein (S1 Subunit, His Tag) (Sino 40591-V08H) (SARS-CoV-2, UniProt P0DTC2 16-685). Kind of assay: Luminex, supernatant.
Another assay has as its target SARS-COV-2 RBD-mFc (SARS-CoV-2). Kind of assay: Luminex beads.

B1: mAb10937 (antibody, V domains shown)
VH: QITLKESGPTLVKPTQTLTLTCTFSGFSLSTNVVGVGWIRQPPGKALEWLALIYWNDDKRYSPSLKSRLTITKDTSKNQVVLTMTNMDPVDTATYYCAHGPTGDYFDYWGQGTLVTVSS
VL: not shown
Regarding B1, the MFI in assay [1] is 19600 MFI; in assay [2], 26400 MFI.

B2: mAb10915 (antibody, V domains shown)
VH: EVQLVESGGGLVQPGGSLRLSCAASGFTVSSNYMNWVRQAPGKGLEWVSVIYSGGSTFYADSVKGRFTISRHNSKNTLYLQMNSLRPEDTAVYYCARDLGGYFDYWGQGTLVTVSS
VL: not shown
As to B2, in the assay with SARS-COV-2 RBD-mFc, the binding result is “binds”.

B3: mAb10913 (antibody, V domains shown)
VH: EVQLVESGGGLVQPGGSLRLSCAASGFTFRNYEMNWVRQAPGKGLEWVSYITSSGSTMYYADSVKGRFTISRDNAKNSLYLQMNSLRAEDTAVYYCARDGFYYYYAMDVWGQGTTVTVSS
VL: QSVLTQPPSVSAAPGQKVTISCSGSSSNIGNNYVSWYQQLPGTAPKLLIYDNNKRPSGIPDRFSGSKSGTSATLGITGLQTGDEADYYCGTWDSSLSVGRVFGTGTKVTVLG
As to B3, the figures for the MFI in assay [1] and in assay [2] were 18900 MFI and 24900 MFI, respectively.

B4: mAb10913 (antibody, V domains shown)
VH: EVQLVESGGGLVQPGGSLRLSCAASGFTFRNYEMNWVRQAPGKGLEWVSYITSSGSTMYYADSVKGRFTISRDNAKNSLYLQMNSLRAEDTAVYYCARDGFYYYYAMDVWGQGTTVTVSS
VL: QSVLTQPPSVSAAPGQKVTISCSGSSSNIGNNYVSWYQQLPGTAPKLLIYDNNKRPSGIPDRFSGSKSGTSATLGITGLQTGDEADYYCGTWDSSLSVGRVFGTGTKVTVLG
Consider B4, for which the binding result in the assay with SARS-COV-2 RBD-mFc is recorded as “binds”.

B5: mAb10971 (antibody, V domains shown)
VH: EVQLVESGGGLIQPGGSLRLSCAASGVTVSSNYMSWVRQAPGKGLEWVSVIYSGGSTFYSDSVKGRFSISRDNSKNTLYLQMNSLRAEDTAVYYCARDLYYYGMDVWGQGTTVTVSS
VL: DIQLTQSPSFLSASVGDRVTITCRASQGISTYLAWYQQKPGKAPKLLIYAASTLQSGVPSRFSGSGSGTEFTLTISSLQPEDFATYYCQQLDSYPGLTFGGGTKVEIKR
As for B5, the results for the MFI in assay [1] and in assay [2] were 17000 MFI and 21600 MFI, respectively.

B6: mAb10982 (antibody, V domains shown)
VH: EVQLVESGGGLVQPGGSLRLSCAASGLTVSSNYMSWVRQAPGKGLEWVSVIYSGGTTYYADSVKGRFTISRHNSKNTLSLQMNSLRAEDTAVYYCARGEGANYYGMDVWGQGTTVTVSS
VL: QSVLTQPPSVSGAPGQRVTISCTGSSSNIGTGYDVHWYQQLPGTAPKLLIYGNSNRPSGVPDRFSGSKSGTSASLAITGLQAEDEADYYCQSYDSSLSGYVVFGGGTKLTVLG
On to B6, for which the MFI was found to be 10800 MFI in assay [1] and 14000 MFI in assay [2].

B7: mAb10986 (antibody, V domains shown)
VH: EVQLVESGGGLVQPGGSLRLSCAASEFTVSSNYMSWVRQAPGKGLEWVSVIYSGGSTFYADSVKGRFTISRDNSKNTLYLQMNSLRAEDTAVYYCARALPYGDLHFDYWGQGTLVTVSS
VL: QSVLTQPPSVSGAPGQRVTISCTGSSSNIGTGYDVHWYQQLPGTAPKLLIYGNTNRPSGVPDRFSGSKSGTSASLAITGLQAEDEADYYCQSYDSSLSDSYVFGTGTKVTVLG
Turning to B7, the figures for the MFI in assay [1] and in assay [2] were 16000 MFI and 19100 MFI, respectively.

B8: mAb10985 (antibody, V domains shown)
VH: EVQLVESGGGLVQPGRSLRLSCAASGFTFDDYAMHWVRQAPGKGLEWVSGISWNRGSIGYADSVKGRFTISRDNAKNSLYLQMSSLRAEDTALYYCAKDGERWDSVVVPSARNGMDVWGQGTTVTVSS
VL: QSVLTQPPSVSGAPGQRVTISCTGSSSNIGAGYDVHWYQQLPGTAPKLLIYGNSNRPSGVPDRFSGSKSGTSASLAITGLQAEDEADYYCQSYDSSLSGSYVFGTGTKVTVLG
Molecule B8 had an MFI in assay [1] of 16200 MFI.

B9: mAb10914 (antibody, V domains shown)
VH: EVQLVESGGGLVQPGGSLRLSCAASGLIVSRNYMIWVRQAPGKGLEWVSVIYSGGSTFYADSVKGRFTISRHNSKNTLYLQMNSLRAEDTAVYYCARDLGTGGMDVWGQGTTVTVSS
VL: DIQLTQSPSFLSASVGDRVTITCWASQGISSYLAWYQQKPGKAPKLLIYAASTLQSGVPSRFSGSGSGTEFTLTISSLQPEDFATYYCQQLNSYPLTFGGGTKVEIKR
For the molecule B9, the binding result with SARS-COV-2 RBD-mFc is “binds”.

B10: mAb10921 (antibody, V domains shown)
VH: EVQLVESGGGLVQPGGSLRLSCAASGITVSSNYMSWVRQAPGKGLEWVSVIYSGGSTFYADSVKGRFTISRHNSKNTLYLQMNSLRAEDTAVYYCARERNFDAFDIWGQGTMVTVSS
VL: DIQMTQSPSSVSASVGDRVTITCRASQGISSWLAWYQQKPGKAPKLLIYAASSLQSGVPSRFSGSGSGTDFTLTISSLQPEDFATYYCQQANSFPLFTFGPGTKVDIKR
With B10, the MFI in assay [1] was found to be 8960 MFI; in assay [2], 12200 MFI.

B11: mAb10932 (antibody, V domains shown)
VH: EVQLVESGGGLVQSGGSLRLSCAASGLTVSSNYMSWVRQAPGKGLEWVSVIYSGGSTFYSDSVKGRFTISRHNSKNTLYLQMNSLRAEDTAVYYCARARGDAFDIWGQGTMVTVSS
VL: not shown
Take B11: the values for the MFI in assay [1] and in assay [2] were 17600 MFI and 22100 MFI, respectively.

B12: mAb10939 (antibody, V domains shown)
VH: EVQLVESGGGLVQPGGSLRLSCAASGLTVSSNYMNWVRQVPGKGLEWVSVIYSGGSKFYVDSVKGRFTISRHNSKNTLYLQMNSLRPEDTAVYYCTRDAQYYGMDVWGQGTTVTVSS
VL: DIQMTQSPSSLSASVGDRVTITCRASQSISTYLHWYQQKPGEAPKLLIYAASSLQSGVPSRFSGSGSGTDFTLTISSLQPEDFATYYCQQSYSTPPEIFGQGTKLEIKR
Take B12: the figures for the MFI in assay [1] and in assay [2] were 18200 MFI and 23900 MFI, respectively.

B13: mAb10989 (antibody, V domains shown)
VH: QVQLVQSGAEVKKPGASVKVSCKASGYIFTGYYMHWVRQAPGQGLEWMGWINPNSGGANYAQKFQGRVTLTRDTSITTVYMELSRLRFDDTAVYYCARGSRYDWNQNNWFDPWGQGTLVTVSS
VL: QSALTQPASVSGSPGQSITISCTGTSSDVGTYNYVSWYQQHPGKAPKLMIFDVSNRPSGVSDRFSGSKSGNTASLTISGLQAEDEADYYCSSFTTSSTVVFGGGTKLTVLG
Take B13: the MFI in assay [1] came out at 12300 MFI; in assay [2], 14200 MFI.

B14: mAb10930 (antibody, V domains shown)
VH: EVQLVESGGGLVQPGRSLRLSCAASGFTFDDYAMYWVRQAPGKGLEWVSGISWNSGSIGYADSVKGRFTISRDNAKNSLYLQMNSLRAADTALYYCAKDKDWNSRGYYYYGMDVWGQGTTVTVSS
VL: not shown
On to B14, for which the MFI in assay [1] stood at 16500 MFI; in assay [2], 21200 MFI.

B15: mAb10934 (antibody, V domains shown)
VH: not shown
VL: DIQMTQSPSSLSASVGDRVTITCQASQDIWNYINWYQQKPGKAPKLLIYDASNLKTGVPSRFSGSGSGTDFTFTISSLQPEDIATYYCQQHDDLPPTFGQGTKVEIKR
As for B15, the MFI in assay [1] was determined as 20600 MFI; in assay [2], 27500 MFI.

B16: mAb10935 (antibody, V domains shown)
VH: EVQLVESGGGLVQPGGSLRLSCAASGFTVSSNYMSWVRQAPGKGLEWVSLIYSGGSTYYADSVKGRFTISRHNSKNTLYLQMNSLRSEDTAVYYCARVPLGDYYYGMDVWGQGTTVTVSS
VL: DIQMTQSPSSLSASVGDRVTITCQASQDINKYLNWYQQKPGKAPKLLIYDASNLETGVPSRFSGSGSGTDFTFTISSLQPEDIATYYCQQSDNLPLTFGGGTKVEIKR
Turning to B16, the MFI came to 20000 MFI in assay [1] and 25600 MFI in assay [2].
